{"source": "patent US20210253725A1", "about": "(BIONTECH, published 2021)", "binders": {"B1": {"name": "P018.S.10.A.C01 (antibody, V domains shown)", "VH": "QSVEESGGRLVTPGTPLTLTCTLSGFSLSNYAMSWVRQAPGKGLEWIGVIYTSGTTHYASWAKGRFTISKTSTTVDLRMTSLTTEDTATYFCARSRYYGSGWGGYYFNLWGQGTLVTVSS", "VL": "DVVMTQTPSPVSAAVGGTVTINCQASEDIYSLLAWYQQKPGQRPKLLIYGASNLESGVPSRFKGSGSGTEYTLTISGVQSADAATYYCHGGTYTGSADINAFGGGTEVVVE", "notes": "V regions on human Ig constant parts; also called AB27_170"}, "B2": {"name": "P018.S.05.A.D06 (antibody, V domains shown)", "VH": "QSVEESGGRLVTPGTPLTLTCTVSGFSLSSYWMSWVRQAPGKGLEWIGFIYGGSGDKYYASWAKGRFAISKTSTTVDLKITSPTTEDTATYFCARGGDGDGTYSSLWGQGTLVTVSS", "VL": "AQVLTQTPSPVSAAVGGTVTISCQSSESVAGKNLAWYQQKPGQPPKVLIYGTSNLASRVPSRFRGSGSGTQFTLTISDLESDDAATYYCQGYYSGGIYGFGGGTEVVVE", "notes": "V regions on human Ig constant parts; also called AB27_88"}, "B3": {"name": "P018.S.02.A.B01 (antibody, V domains shown)", "VH": "QSVEESGGRLVTPGTPLTLTCTVSGMDLSSYSMSWVRQAPGEGLEYIGFIGSSGGTYYASWAKGRFTISRTSTTVDLNITSPTTEDTATYFCARMLAGVYTRLDLWGQGTLVTVSS", "VL": "AQVLTQTPSSVSAAVGGTVTINCQASQSISSSYCSWYQQKPGQPPKLLIYKASTLASGVPSRFKGSGSGTQFTLTISDVQSDDAATYYCAGDFIASSGNAFGGGTEVVVK", "notes": "V regions on human Ig constant parts; also called AB27_29"}, "B4": {"name": "P018.S.10.A.H02 (antibody, V domains shown)", "VH": "QSLEESGGRLVTPGGSLTLTCTVSGIDLSSYAMGWFRQAPGKGLEYIGIIYSSGSTWFANWVKGRFTISKTSTTVDLKMTSLTTEDTATYFCARYSAADHGDKFKLWGQGTLVTVSS", "VL": "AAVLTQTPSPVSAAVGGTVSISCQSSKNIFDNTRLSWFQQKPGQPPKQLIYGASTLASGVPSRFSGSGSGTQFTLTISGVQSDDAATYYCLGEYSSDSDTSFGGGTEVVVK"}, "B5": {"name": "P018.S.09.A.C06 (antibody, V domains shown)", "VH": "QSVEESGGRLVTPGTPLTLTCTVSGFSLSTYAMGWVRQAPGKGLEWIGIIYTGGSTYYASWAEGRFTISKTSTTVDLKITSPTPEDTATYFCTRDLGATYDYFDLWGQGTLVTVSS", "VL": "AYDMTQTPASVEVAVGGTVTIKCQASQSISTALAWYQQKPGQRPKLLIYDTSDLASGVPSRFSGSGSGTEFTLTISGVESADAATYYCQQGYRHTNVDNPFGGGTGVVVK"}, "B6": {"name": "P018.S.10.A.E04 (antibody, V domains shown)", "VH": "QSLEESGGDLVKPGASLTLTCTASGFSFSSSYWICWVRQAPGKGLEWVACISAPGSGSTFDASWAKGRFTISKTSSTTVTLQMTSLTAADTATYFCARFYAGGSGDYFDLWGPGTLVTVSS", "VL": "QIVMTQTPSSTSEPVGGTVSIKCQASQNIGSYLAWYQQKPGQPPKVLIYTTSDLASGVPSRFKGSGSGTQFTLTISDLESDDAATYYCLGVYGYSSDDVAFGGGTEVVVK"}, "B7": {"name": "P018.S.09.A.H06 (antibody, V domains shown)", "VH": "QSVEESGGRLVKPDETLTLTCTVSGIDLTSYAMGWVRQAPGEGLEWIGAIGSGGGIYYASWARGRFTISKTSSTTVDLKIPSPTTEDTATYFCARVPQWAYLDLWGQGTLVTVSS", "VL": "AQVLTQTPASVSAAVGGTVTISCQSSESVYKNNYLSWYQQKPGQPPKLLIYDASTLASGVPSRFSGSGSGTQFTLTISGVQSEDAATYYCQGYYGGGIFTFGGGTEVVVK"}, "B8": {"name": "P018.S.10.A.A04 (antibody, V domains shown)", "VH": "QSVEESGGRLVTPGTPLTLTCTVSGIDLSSNVMTWVRQAPGKGLEWIGYIYASATTYYATWAKGRFTISKTSTTVDLKMTSPTTEDTATYFCARERLASRGDYSDLWGQGTLVTVSS", "VL": "AYDMTQTPASVEAAVGGTVTIKCQASESIGDLLAWYQQKPGQPPKLLIYDASDLASGVPSRFKGSGSGTEFTLTISGVESADAATYYCQQGYTTTSNVDNIFGGGTEVVVK"}, "B9": {"name": "P018.S.10.A.C05 (antibody, V domains shown)", "VH": "QSVEETGGRLVTPGTPLTLTCAASGVSLSGYYAMSWVRQAPGKGLEWIGYLDATGSTYYASWVKGRFIISRPSTTVDLQITSPTIEDTATYFCARGSYDGVGYNWGLWGQGTLVTVSS", "VL": "DIVMTQTPASVSEPVGGTVTIKCQASESIYNGLAWYQQKPGQPPKRLIYGASTLTSGVPSRFKGSGSGTEFTLTISDLESDDAATYYCQSNYGSGSRSNYIFGGGTEVVVK"}, "B10": {"name": "P018.S.09.A.H03 (antibody, V domains shown)", "VH": "QSLEESGGRLVTPDESLTLTCTVSGFSLSSNAMIWVRQAPGKGLEWIGIIDTGGSAYYASWAKGRFTISKTSTTVDLKITSPTTEDTATYFCARDRYTDSSGYNLWGQGTLVTVSS", "VL": "DIVMTQTPASVEAAVGGTVTIKCQASQSIGASLAWYKQKPGQPPKLLIYSASWLASGVPSRFKGSGSGTEFTLTISDLASADAATYYCQSYYYRSSSGYGYAFGGGTEVVVK"}, "B11": {"name": "P018.S.04.A.A05 (antibody, V domains shown)", "VH": "QSLEESGGRLVTPGTPLTLTCTASGFTISSYEMGWVRQAPGEGLEYIGWIASGGSTFYASWAKGRFTISRTSTTVDLTITDLRPSDTGTYFCARGYVEFKLWGPGTLVTVSS", "VL": "DIVMTQTPASVSESVGGTVTIKCQASQSIGSYLSWYQQKPGQPPKVLIYRASTLESGVPSRFEGSGSGTQFTLTISDLESADAATYYCQGYHSTSGYVAFGGGTELVVK"}, "B12": {"name": "P018.S.07.A.G02 (antibody, V domains shown)", "VH": "QSVEESGGRLVTPGTPLTLTCTVSGFSLSSYDMSWVRQAPGKGLEWIGWITTDGGTDYASWAKGRFTVSKASTTVDLKITSPTTEDTATYFCARGYASFNLWGQGTLVTVSS", "VL": "AQVLTQTPSSVSAAVGGTVTINCQSSQSVLSNSYLAWYQQKPGQPPKLLIYAASSLASGVPSRFKGSGSGTQFTLTISDLESDDAATYYCQGTDYSGGWYVAFGGGTEVVVK"}, "B13": {"name": "P018.S.10.A.H01 (antibody, V domains shown)", "VH": "QEQLEESGGDLVKPGASLTLTCTASGFSFSSDYDMCWVSQAPGKGLEWIACIIGGSSDSTWYASWAKGRFTISKTSSTTVTLQVTGLTAADTATYFCARNVGFSYYDLWGPGTLVTVSS", "VL": "AQVLTQTPSPVSAAVGGTVTINCQASQSLYNNKNLAWYQQKPGQPPKLLIYYASTLASGVSSRFKGSGSGTQFTLTISGVQSDDAATYYCQGEFSCSSGDCFAFGGGTEVVVK"}, "B14": {"name": "P018.S.09.A.E05 (antibody, V domains shown)", "VH": "QSLEESGGRLVTPGTPLTLTCTVSGIDLSRYDMSWVRQAPGKGLEWIGFIGASGSTYYASWVKGRFTISKTSTTVDLKITSPTTEDTATYFCAREETDSRGYYYSLWGPGTPVTVSS", "VL": "ALVMTQTPASVEAAVGGTVTINCQASQSISDLLGWYQQKPGQPPKLLIYDASDLASGVPSRFSGSGSGTEFTLTISGVQSDDAATYYCQQGYSINNVDNAFGGGTEVVVK"}, "B15": {"name": "P018.S.02.A.G03 (antibody, V domains shown)", "VH": "QSVEESGGRLVTPGTPLTLTCTVSGFSLSSYVMSWVRQAPGKGLEWIGYIDYGGTAYYASWAKGRFTISKTSTTVELKITSPTIEDTATYFCARGGYGGYILVTGLWGPGTLVTVSS", "VL": "DIVMTQTPASVSEPVGGTVTIKCQASQTIISYLSWYQQKPGQPPKLLIYGASTLASGVPSRFKGSGSVTEYTLTISDLESADAATYYCQTYYGGGPFGNGFGGGTEVVVK"}, "B16": {"name": "P018.S.09.A.D05 (antibody, V domains shown)", "VH": "QSLEESGGRLVTPGGSLTLTCTVSGIDLSSYAMDWVRQAPGKGLEWIGVIGAGGSTYYASWANGRFTISKTSTTVDLKISSPTTEDTATYFCARDIGGDYSSRYYFSLWGPGTLVTVSS", "VL": "DIVMTQTPASVEAAVGGTVTIKCQASQSTSTALAWYQQKPGQRPKLLIYDSSKLASGVPSRFSGSGSGTEFTLTISGVQSDDAASYYCQQGYNINNVAFGGGTEVVVK"}, "B17": {"name": "P018.S.06.A.A02 (antibody, V domains shown)", "VH": "QEQLVESGGGLVQPEGSLTLTCTSSGFSLNSNYYISWVRQAPGKGLEWIACIDAGSGSTWYASWVKGRFTISKTSSTTVTLQMTSLTAADTATYFCARDDIGTSYEYYFGLWGPGTLVTVSS", "VL": "DVVLTQTPASVSEPVGGTVTIKCQASQTISSYLAWYQQKSGQPPKLLIYSASTLASGVSSRFKGSGSGTEYTLTISDLESADAATYYCQTYYGSDSYVFGGGTEVVVK"}, "B18": {"name": "P018.S.10.A.E01 (antibody, V domains shown)", "VH": "QEQLVESGGGLVQPEGSLTLTCTATGIDFSTNYRSCWVRQAPGKGLEWIACIDTDDSDSTYYASWAKGRFTISKTSSTTVTLQMTSLTAADTATYFCTRAYTTSDYAWSFYLWGPGTLVTVSS", "VL": "DLVMTQTPASVEAAVGGTVTIKCQTSQSISKFLNWYQQTPGQPPKLLIYRASTLESGVPSRFEGSGSGTEFTLTISDLESADAATYYCQCTYGGTSGSVWAFGGGTEVVVK"}}}
{"target": "T1, CD27 expressed on the cell surface of HT1080_CD27 cells (human, UniProt P26842 20-260)", "T1 sequence (looked up)": "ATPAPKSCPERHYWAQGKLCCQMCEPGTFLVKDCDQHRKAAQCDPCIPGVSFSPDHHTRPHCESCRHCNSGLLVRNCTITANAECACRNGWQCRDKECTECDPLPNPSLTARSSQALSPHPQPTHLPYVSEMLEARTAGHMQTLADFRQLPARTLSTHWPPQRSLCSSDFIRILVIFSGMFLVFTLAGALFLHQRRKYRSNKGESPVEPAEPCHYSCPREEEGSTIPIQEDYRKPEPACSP", "experiment": "cell-based or functional assay", "units": {"Functional assay Cross-linked by F(ab′)2 fragment IL-8": "abs. corr.", "Functional assay IL-8": "abs. corr."}}
{"binder": "B1", "Functional assay Cross-linked by F(ab′)2 fragment IL-8": 1.1, "Functional assay IL-8": -0.046}
{"binder": "B2", "Functional assay Cross-linked by F(ab′)2 fragment IL-8": 1.23, "Functional assay IL-8": 0.338}
{"binder": "B3", "Functional assay Cross-linked by F(ab′)2 fragment IL-8": 1.42, "Functional assay IL-8": 0.538}
{"target": "T2, CD27 protein (His-tagged, Sino Biological Inc. 10039-H08B1) (human, UniProt P26842 20-192)", "T2 construct": "bought protein coated on ELISA plates; also called TNFRSF7; not shown: His tag", "T2 sequence (looked up)": "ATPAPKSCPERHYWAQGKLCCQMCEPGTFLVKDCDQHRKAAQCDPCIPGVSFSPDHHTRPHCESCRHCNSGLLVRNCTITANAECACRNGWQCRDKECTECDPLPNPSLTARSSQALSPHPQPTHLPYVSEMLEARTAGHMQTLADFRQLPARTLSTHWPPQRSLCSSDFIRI", "experiment": "ELISA, coated His-tagged CD27", "units": {"ELISA [abs. corr.]": "abs. corr."}}
{"binder": "B1", "ELISA [abs. corr.]": 2.93}
{"binder": "B2", "ELISA [abs. corr.]": 2.93}
{"binder": "B3", "ELISA [abs. corr.]": 2.93}
{"target": "T1, CD27 expressed on the cell surface of …", "experiment": "HT1080_CD27 cells, imaging", "units": {"Cellular binding assay [RFU]": "RFU"}}
{"binder": "B1", "Cellular binding assay [RFU]": 266}
{"binder": "B2", "Cellular binding assay [RFU]": 323}
{"binder": "B3", "Cellular binding assay [RFU]": 332}
{"target": "T1, CD27 expressed on the cell surface of …", "experiment": "cell-based or functional assay", "remark": "another data set of the same source", "units": {"EC 50 (IL-8 release, cross-linked)": "mg/L"}}
{"binder": "B4", "EC 50 (IL-8 release, cross-linked)": 0.122}
{"binder": "B5", "EC 50 (IL-8 release, cross-linked)": 0.221}
{"binder": "B6", "EC 50 (IL-8 release, cross-linked)": 0.234}
{"binder": "B7", "EC 50 (IL-8 release, cross-linked)": 0.329}
{"binder": "B8", "EC 50 (IL-8 release, cross-linked)": 0.335}
{"binder": "B9", "EC 50 (IL-8 release, cross-linked)": 0.34}
{"binder": "B10", "EC 50 (IL-8 release, cross-linked)": 0.387}
{"binder": "B11", "EC 50 (IL-8 release, cross-linked)": 0.408}
{"binder": "B12", "EC 50 (IL-8 release, cross-linked)": 0.43}
{"binder": "B13", "EC 50 (IL-8 release, cross-linked)": 0.431}
{"binder": "B14", "EC 50 (IL-8 release, cross-linked)": 0.502}
{"binder": "B15", "EC 50 (IL-8 release, cross-linked)": 0.526}
{"binder": "B16", "EC 50 (IL-8 release, cross-linked)": 0.561}
{"binder": "B17", "EC 50 (IL-8 release, cross-linked)": 0.575}
{"binder": "B18", "EC 50 (IL-8 release, cross-linked)": 0.722}
